Assay results reported in patent US20190183976A1.

Molecular target: T1, CXCR4-VC (human), P61073
T1 chain: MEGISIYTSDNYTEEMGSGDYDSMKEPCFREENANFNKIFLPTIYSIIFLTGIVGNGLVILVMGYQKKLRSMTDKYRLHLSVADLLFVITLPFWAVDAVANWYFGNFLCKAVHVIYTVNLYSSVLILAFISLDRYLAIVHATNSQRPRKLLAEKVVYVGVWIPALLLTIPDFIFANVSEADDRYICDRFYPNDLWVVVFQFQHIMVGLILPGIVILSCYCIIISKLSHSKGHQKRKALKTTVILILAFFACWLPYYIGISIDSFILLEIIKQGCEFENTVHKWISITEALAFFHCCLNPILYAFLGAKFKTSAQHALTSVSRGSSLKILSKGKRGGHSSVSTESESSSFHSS
Assay: BiFC, U-2 OS cells; score=(positive cells/total cells)x100
Settings: remark: other sources report otherwise

B1: CXCR4-VN, P61073 1-352 (receptor, human, UniProt P61073 1-352, looked up, not shown: small tags and cut ends)
chain: T1 chain
  BiFC score: 9.9
